Reference: US20220280659A1, “Targeted Nanoparticles of Well-Defined and Reproducible Sizes” (STAMS DIAGNOSTICS GMBH, priority 2019, published 2022)

Test: Zeta Potential (surface charge) by electrophoretic mobility / PCS, PSS NICOMP 380 DLS/ZLS
Assay type: physicochemical
Details: FIG. 5; pH 7
Experimental: The surface charge (also referred to as Zeta potential) of the nanoparticles was determined by measuring their electrophoretic mobility using a PSS NICOMP™ 380 DLS/ZLS. Measurements were made at particle concentrations of 6 to 15 mg/ml, temperatures between room temperature to 50° C., and applying an external voltage of 5 Volts.
The surface charge (also referred to as Zeta potential or ζ-potential) may be measured using Zeta Sizer as e.g. PSS NICOMP™ 380 DLS/ZLS. Zeta Charge, or Net Surface Charge of a molecule or a particle is measured by PCS in the presence of an applied electrical field.

human serum albumin [cleaned and stabilized albumin molecules]
global surface charge, PCS based measurement of the Zeta Potential: about −5 mV
